Data set [1] deals with T1, MBP-ApFoxO DBD (Acyrthosiphon pisum, UniProt A0A8R1VZ87 89-178). Briefly: EMSA; 0.5 ug protein, 5x labeled mutant probe; EMSA: room temperature, 30 min; 6% native PAGE in 0.5x TBE, 60 V, 4 C; binding buffer, salt and pH not stated. Particulars: protein: recombinant; tags: N-terminal MBP (pMAL-c2x); label: 5' biotin. (A gel shift assay detects complexes by their altered migration in electrophoresis.)

Data set [2] deals with T1, MBP-ApFoxO DBD. The experiment in a line: EMSA; 0.5 and 5 ug protein; concentration-dependent shift; EMSA: room temperature, 30 min; 6% native PAGE in 0.5x TBE, 60 V, 4 C; binding buffer, salt and pH not stated. The conditions noted are these: protein: recombinant; tags: N-terminal MBP (pMAL-c2x); label: 5' biotin.
The target in data set [3] is T1, MBP-ApFoxO DBD. Briefly: competition; 5x and 25x unlabeled probe vs labeled FRE2; shift greatly reduced; EMSA: room temperature, 30 min; 6% native PAGE in 0.5x TBE, 60 V, 4 C; binding buffer, salt and pH not stated. The conditions noted are these: protein: recombinant; tags: N-terminal MBP (pMAL-c2x).
The target of data set [4] is T1, MBP-ApFoxO DBD. The experiment in a line: EMSA; 0.5 and 5 ug protein; EMSA: room temperature, 30 min; 6% native PAGE in 0.5x TBE, 60 V, 4 C; binding buffer, salt and pH not stated. The conditions noted are these: protein: recombinant; tags: N-terminal MBP (pMAL-c2x); label: 5' biotin.

Consider four molecules from publication PMC12145829, “The maternal vGluT2 and embryonic mGluR3 signaling relay system controls offspring wing dimorphism in pea aphid”.

T1 sequence (A0A8R1VZ87 entry or part of it): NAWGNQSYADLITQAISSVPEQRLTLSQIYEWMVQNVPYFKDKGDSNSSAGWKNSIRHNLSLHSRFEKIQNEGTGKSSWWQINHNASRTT

B1: FRE2 mutant (FRE_m) (dsDNA)
DNA 1: GATATAGTTTACACACCCGTATGACGGCAGAGA
DNA 2: TCTCTGCCGTCATACGGGTGTGTAAACTATATC
For the molecule B1, the binding result with MBP-ApFoxO DBD [1] was “no binding”.

B2: ApHh promoter FRE2 probe (dsDNA)
DNA 1: GATATAGTTTACATGTTTACATGACGGCAGAGA
DNA 2: TCTCTGCCGTCATGTAAACATGTAAACTATATC
For B2, the binding result with MBP-ApFoxO DBD [2] is recorded as “binds”.

B3: FRE2 unlabeled competitor (dsDNA)
DNA 1: GATATAGTTTACATGTTTACATGACGGCAGAGA
DNA 2: TCTCTGCCGTCATGTAAACATGTAAACTATATC
With B3, in the data set with MBP-ApFoxO DBD [3], the binding result is “binds”.

B4: ApHh promoter FRE1 probe (dsDNA)
DNA 1: TTGACTGTAGTATGTAAACATTTCTGAACTCCA
DNA 2: TGGAGTTCAGAAATGTTTACATACTACAGTCAA
Take B4: in the data set with MBP-ApFoxO DBD [4], the binding result was “no binding”.
